Reference: patent publication US20240293478A1 (ACTYM THERAPEUTICS, published 2024)

T1: DLL3 on SHP77 cells (UniProt Q9NYJ7 27-618, limits assumed)
T1 construct: whole, on cells; also called delta-like ligand 3
T1 sequence (looked up): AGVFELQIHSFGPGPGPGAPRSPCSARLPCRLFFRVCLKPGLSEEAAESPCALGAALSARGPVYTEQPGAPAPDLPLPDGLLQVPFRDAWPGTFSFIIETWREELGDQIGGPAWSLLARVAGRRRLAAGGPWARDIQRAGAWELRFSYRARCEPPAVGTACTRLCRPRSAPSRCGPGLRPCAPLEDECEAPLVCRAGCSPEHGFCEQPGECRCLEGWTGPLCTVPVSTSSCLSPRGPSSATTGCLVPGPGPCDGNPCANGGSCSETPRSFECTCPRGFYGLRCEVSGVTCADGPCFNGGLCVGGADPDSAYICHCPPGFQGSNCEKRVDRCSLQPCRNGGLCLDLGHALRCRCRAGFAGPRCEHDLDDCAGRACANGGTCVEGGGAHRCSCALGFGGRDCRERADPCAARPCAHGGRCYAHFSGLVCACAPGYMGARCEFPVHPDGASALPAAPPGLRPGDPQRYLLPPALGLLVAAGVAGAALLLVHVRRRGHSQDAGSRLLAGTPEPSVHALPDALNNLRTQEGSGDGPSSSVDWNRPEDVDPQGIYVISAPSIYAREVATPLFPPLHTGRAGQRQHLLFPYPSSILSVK

T2: Human DLL3 (R&D Systems) (human, UniProt Q9NYJ7 27-492, limits assumed)
T2 sequence (looked up): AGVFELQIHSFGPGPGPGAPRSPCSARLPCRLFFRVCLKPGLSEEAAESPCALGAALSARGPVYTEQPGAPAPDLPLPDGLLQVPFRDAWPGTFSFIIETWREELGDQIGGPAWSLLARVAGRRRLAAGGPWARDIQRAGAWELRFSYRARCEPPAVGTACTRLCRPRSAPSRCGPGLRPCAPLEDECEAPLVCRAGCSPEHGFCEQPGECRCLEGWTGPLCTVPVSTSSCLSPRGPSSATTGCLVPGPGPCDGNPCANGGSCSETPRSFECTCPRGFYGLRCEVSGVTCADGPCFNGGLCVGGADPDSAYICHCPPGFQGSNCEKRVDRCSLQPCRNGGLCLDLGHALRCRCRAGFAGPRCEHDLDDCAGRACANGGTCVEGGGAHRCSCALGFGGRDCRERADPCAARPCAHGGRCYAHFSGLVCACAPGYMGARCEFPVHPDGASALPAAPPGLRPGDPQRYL

B1: SC16.56 DLL3LH×CD3HL (bispecific antibody)
chain: SIVMTQTPKFLLVSAGDRVTITCKASQSVSNDVVWYQQKPGQSPKLLIYYASNRYTGVPDRFAGSGYGTDFSFTISTVQAEDLAVYFCQQDYTSPWTFGGGTKLEIRGGGGSGGGGSGGGGSQIQLVQSGPELKKPGETVKISCKASGYTFTNYGMNWVKQAPGKGLKWMAWINTYTGEPTYADDFKGRFAFSLETSASTASLQIINLKNEDTATYFCARIGDSSPSDYWGQGTTLTVSSGGGGSEVQLVESGGGLVQPGKSLKLSCEASGFTFSGYGMHWVRQAPGRGLESVAYITSSSINIKYADAVKGRFTVSRDNAKNLLFLQMNILKSEDTAMYYCARFDWDKNYWGQGTMVTVSSGGGGSGGGGSGGGGSDIQMTQSPSSLPASLGDRVTINCQASQDISNYLNWYQQKPGKAPKLLIYYTNKLADGVPSRFSGSGSGRDSSFTISSLESEDIGSYYCQQYYNYPWTFGPGTKLEIKDYKDDDDK
notes: the leader is left out here; Tested as HEK293T supernatant; also called SC16.56 DLL3LHxCD3HL BiTE
B2: SC16.34 DLL3HL×CD3HL (bispecific antibody)
chain: QIQLVQSGPELKRPGETVKISCKASGYTFTNYGMNWVKQAPGKGLKWMGWINTYTGDPTYADDFKGRFAFSLETSASTAYLQINNLKNEDTATYFCARIGGNSPSDYWGQGTSLTVSSGGGGSGGGGSGGGGSSIVMTQTPKFLLVSAGDRVTITCKASQSVSNDVAWYQQKPGQSPKLLIYYASNRYSGVPDRFTGSGYGTDFTFTISTVQAEDLAVYFCQQDYSSPWTFGGGTKLEIKGGGGSEVQLVESGGGLVQPGKSLKLSCEASGFTFSGYGMHWVRQAPGRGLESVAYITSSSINIKYADAVKGRFTVSRDNAKNLLFLQMNILKSEDTAMYYCARFDWDKNYWGQGTMVTVSSGGGGSGGGGSGGGGSDIQMTQSPSSLPASLGDRVTINCQASQDISNYLNWYQQKPGKAPKLLIYYTNKLADGVPSRFSGSGSGRDSSFTISSLESEDIGSYYCQQYYNYPWTFGPGTKLEIKDYKDDDDK
notes: the leader is left out here; Tested as HEK293T supernatant; also called SC16.34 DLL3HLxCD3HL BiTE
B3: SC16.34 DLL3LH×CD3HL (bispecific antibody)
chain: SIVMTQTPKFLLVSAGDRVTITCKASQSVSNDVAWYQQKPGQSPKLLIYYASNRYSGVPDRFTGSGYGTDFTFTISTVQAEDLAVYFCQQDYSSPWTFGGGTKLEIKGGGGSGGGGSGGGGSQIQLVQSGPELKRPGETVKISCKASGYTFTNYGMNWVKQAPGKGLKWMGWINTYTGDPTYADDFKGRFAFSLETSASTAYLQINNLKNEDTATYFCARIGGNSPSDYWGQGTSLTVSSGGGGSEVQLVESGGGLVQPGKSLKLSCEASGFTFSGYGMHWVRQAPGRGLESVAYITSSSINIKYADAVKGRFTVSRDNAKNLLFLQMNILKSEDTAMYYCARFDWDKNYWGQGTMVTVSSGGGGSGGGGSGGGGSDIQMTQSPSSLPASLGDRVTINCQASQDISNYLNWYQQKPGKAPKLLIYYTNKLADGVPSRFSGSGSGRDSSFTISSLESEDIGSYYCQQYYNYPWTFGPGTKLEIKDYKDDDDK
notes: the leader is left out here; also called SC16.34 DLL3LHxCD3HL BiTE
B4: SC16.15 DLL3LH×CD3HL (bispecific antibody)
chain: DIQMTQSPASLAASVGETVAITCRASENIYYNLAWYQQKQGKSPQLLIYTANSLEDGVPSRFSGSGSGTQYSLKINSMQPEDSATYFCKQAYDVPPTFGGGTKLEIKGGGGSGGGGSGGGGSQVQLQQSGAELAKPGASVKMSCKASGYTFTRYWIHWIKQRPGQGLEWIGYINPTTVYTEFNQNFKDKATLTADKSSTTASMQLSSLTSEDSAVYYCARGGSNFFDYWGQGTTLTVSSGGGGSEVQLVESGGGLVQPGKSLKLSCEASGFTFSGYGMHWVRQAPGRGLESVAYITSSSINIKYADAVKGRFTVSRDNAKNLLFLQMNILKSEDTAMYYCARFDWDKNYWGQGTMVTVSSGGGGSGGGGSGGGGSDIQMTQSPSSLPASLGDRVTINCQASQDISNYLNWYQQKPGKAPKLLIYYTNKLADGVPSRFSGSGSGRDSSFTISSLESEDIGSYYCQQYYNYPWTFGPGTKLEIKDYKDDDDK
notes: the leader is left out here; Tested as HEK293T supernatant; also called SC16.15 DLL3LHxCD3HL BiTE
B5: SC16.15 DLL3HL×CD3HL (bispecific antibody)
chain: QVQLQQSGAELAKPGASVKMSCKASGYTFTRYWIHWIKQRPGQGLEWIGYINPTTVYTEFNQNFKDKATLTADKSSTTASMQLSSLTSEDSAVYYCARGGSNFFDYWGQGTTLTVSSGGGGSGGGGSGGGGSDIQMTQSPASLAASVGETVAITCRASENIYYNLAWYQQKQGKSPQLLIYTANSLEDGVPSRFSGSGSGTQYSLKINSMQPEDSATYFCKQAYDVPPTFGGGTKLEIKGGGGSEVQLVESGGGLVQPGKSLKLSCEASGFTFSGYGMHWVRQAPGRGLESVAYITSSSINIKYADAVKGRFTVSRDNAKNLLFLQMNILKSEDTAMYYCARFDWDKNYWGQGTMVTVSSGGGGSGGGGSGGGGSDIQMTQSPSSLPASLGDRVTINCQASQDISNYLNWYQQKPGKAPKLLIYYTNKLADGVPSRFSGSGSGRDSSFTISSLESEDIGSYYCQQYYNYPWTFGPGTKLEIKDYKDDDDK
notes: the leader is left out here; Tested as HEK293T supernatant; also called SC16.15 DLL3HLxCD3HL BiTE
B6: SC16.56 DLL3HL×CD3HL (bispecific antibody)
chain: QIQLVQSGPELKKPGETVKISCKASGYTFTNYGMNWVKQAPGKGLKWMAWINTYTGEPTYADDFKGRFAFSLETSASTASLQIINLKNEDTATYFCARIGDSSPSDYWGQGTTLTVSSGGGGSGGGGSGGGGSSIVMTQTPKFLLVSAGDRVTITCKASQSVSNDVVWYQQKPGQSPKLLIYYASNRYTGVPDRFAGSGYGTDFSFTISTVQAEDLAVYFCQQDYTSPWTFGGGTKLEIRGGGGSEVQLVESGGGLVQPGKSLKLSCEASGFTFSGYGMHWVRQAPGRGLESVAYITSSSINIKYADAVKGRFTVSRDNAKNLLFLQMNILKSEDTAMYYCARFDWDKNYWGQGTMVTVSSGGGGSGGGGSGGGGSDIQMTQSPSSLPASLGDRVTINCQASQDISNYLNWYQQKPGKAPKLLIYYTNKLADGVPSRFSGSGSGRDSSFTISSLESEDIGSYYCQQYYNYPWTFGPGTKLEIKDYKDDDDK
notes: the leader is left out here; Tested as HEK293T supernatant; also called SC16.56 DLL3HLxCD3HL BiTE

target: T1, DLL3 on SHP77 cells; assay: flow cytometry on SHP77 cells, concentrated HEK supernatant, Protein L biotin + Streptavidin APC; percent APC positive cells
Method: (§1) 500,000 SHP77 cells were seeded in wells of a V-bottom 96-well plate. The cells were washed once with PBS+2% FBS by centrifugation at 1300 RPM for 3 minutes. The cells were resuspended in 50 uL PBS+2% FBS containing concentrated HEK supernatant corresponding to either untransfected cells or cells transfected with a BiTE. After 30 minutes, the cells were washed twice with PBS+2% FBS by centrifugation at 1300 RPM for 3 minutes. The cells were then resuspended in 50 uL PBS+2% FBS containing either anti-Flag biotin (Sigma) at 1:100 dilution or Protein L biotin (Genscript) at 1:200 dilution, and incubated on ice for 30 minutes. The cells were washed twice with PBS+2% FBS by centrifugation at 1300 RPM for 3 minutes. Subsequently, the cells were stained with Streptavidin APC (Biolegend) at 1:200 dilution and incubated on ice for 30 minutes in the dark.
(§2) The cells were washed twice with PBS+2% FBS by centrifugation at 1300 RPM for 3 minutes and resuspended in DAPI diluted 1:6000 in PBS+2% FBS. Flow cytometry data were acquired using the ACEA NovoCyte® flow cytometer (ACEA Biosciences, Inc.), and analyzed using the FlowJo™ software (Tree Star, Inc.).

Binder	% Binding to SHP77 Detected by Protein L
B1	36.4%
B2	36.6%
B3	36.4%

target: T1, DLL3 on SHP77 cells; assay: flow cytometry on SHP77 cells, concentrated HEK supernatant, anti-Flag biotin + Streptavidin APC; percent APC positive cells
Method: as §1, §2

Binder	% Binding to SHP77 Detected by anti-Flag
B1	20.9%
B2	19.6%
B3	20.1%

target: T2, Human DLL3 (R&D Systems); assay: bridging ELISA: human DLL3 coated at 1 ug/ml, HEK293T supernatant, detection by human IgG Fc conjugated CD3e + anti-human-HRP (signal needs binding to both DLL3 and CD3e); untransfected 0.010
Method: (§3) The expressed DLL3×CD3 bispecific T-cell engagers also were evaluated for binding to DLL3 and to CD3 with an ELISA. This ELISA was developed to detect correctly folded DLL3×CD3 bispecific T-cell engager binding to DLL3 and CD3 in the same assay. Human DLL3 (R&D Systems) was coated overnight at 4° C. on a high protein-binding 96-well plate, at a concentration of 1 ug/ml. The wells then were washed three times with PBS 0.05% Tween-20, and the wells were blocked with ELISA blocking buffer for 1 hour at room temperature. The wells then were washed three times with PBS 0.05% Tween-20. HEK293T cell culture supernatants, containing the DLL3×CD3 bispecific T-cell engagers, were added to the wells and incubated for 2 hours at room temperature. The wells were washed three times with PBS 0.05% Tween-20, and human IgG Fc conjugated CD3e was added to the wells (Acro Biosystems), and incubated for one hour at room temperature. The wells again were washed three times with PBS 0.05% Tween-20, and horseradish peroxidase (HRP)-conjugated anti-human antibody was added for a 1 hour incubation. The wells were then washed three times with PBS 0.05% Tween-20, and detection reagent (3,3′,5,5′-tetramethylbenzidine (TMB), Thermo Fisher Scientific) was added to the wells. The enzymatic reaction was stopped with sulfuric acid (BioLegend), and the optical densities were read at 450 nm.

Binder	Absorbance at 450 nm
B4	0.001 absorbance (450 nm)
B1	0.175 absorbance (450 nm)
B5	0.002 absorbance (450 nm)
B6	0.007 absorbance (450 nm)
B2	0.253 absorbance (450 nm)
B3	1.46 absorbance (450 nm)

target: T2, Human DLL3 (R&D Systems); assay: bridging ELISA (human DLL3 coated, CD3e-Fc detection) with engagers purified on ANTI-FLAG M2 Affinity Gel
Method: as §3
The table below provides the results of this ELISA, shown as the absorbance at 450 nm. All of the SC16.56 DLL3LH×CD3HL, SC16.34 DLL3HL×CD3HL, and SC16.34 DLL3LH×CD3HL BiTE antibodies were detected, showing that these BiTEs antibodies are fully functional. […] In a separate experiment, the bispecific T-cell engagers were purified using ANTI-FLAG M2 Affinity Gel (Sigma) and run on this ELISA. SC16.34 DLL3LH×CD3HL was the only purified BiTE to show ELISA signal above background.

Binder	binding result
B4	no binding
B5	no binding
B6	no binding
